Laboratory results: paper PMC3406085

Biological target: Merkel cell polyomavirus (MCPyV) major capsid protein VP1, amino acids 38-320, unassembled pentamer (Merkel cell polyomavirus (w162))
Assay: crystal structure; unassembled VP1 pentamers, native and soaked with DSL, 3SLN or GD1a; hanging drop at 20°C, 100 mM sodium cacodylate pH 6.5, 6% PEG 3,350, 300 mM magnesium chloride; four VP1 pentamers in the asymmetric unit

Substance: Merkel cell polyomavirus (MCPyV) major capsid protein VP1, amino acids 38-320, unassembled pentamer (domain or fragment)
- stoichiometry N: 5
